Measured values: publication PMC3246441, “Structural Basis of Response Regulator Inhibition by a Bacterial Anti-Activator Protein” (PLoS Biology, 2011)
Where a chain is given by its changes, count along the chain named. Names may count otherwise.

T1: RapF-E71A (B. subtilis, UniProt P71002 2-381, E71A)
T1 construct: RapF, Bacillus subtilis, with one alanine substitution; Text S1 may tell
T1 sequence: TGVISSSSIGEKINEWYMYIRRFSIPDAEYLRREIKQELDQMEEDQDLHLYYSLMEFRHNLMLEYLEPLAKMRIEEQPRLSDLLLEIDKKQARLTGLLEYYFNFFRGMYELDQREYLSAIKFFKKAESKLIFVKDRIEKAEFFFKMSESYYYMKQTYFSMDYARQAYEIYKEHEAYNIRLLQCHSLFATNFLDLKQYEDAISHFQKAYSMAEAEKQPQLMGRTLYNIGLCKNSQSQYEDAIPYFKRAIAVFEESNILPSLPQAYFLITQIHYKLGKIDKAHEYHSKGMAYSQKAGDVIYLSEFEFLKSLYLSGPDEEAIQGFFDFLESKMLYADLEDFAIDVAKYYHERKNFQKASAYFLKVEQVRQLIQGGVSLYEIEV

T2: RapF-P27A (B. subtilis, UniProt P71002 2-381, P27A)
T2 construct: RapF, Bacillus subtilis, with one alanine substitution; Text S1 may tell
T2 sequence: T1 sequence with P26A, A70E

B1: RapF (natural protein, B. subtilis)
chain: GSMTGVISSSSIGEKINEWYMYIRRFSIPDAEYLRREIKQELDQMEEDQDLHLYYSLMEFRHNLMLEYLEPLEKMRIEEQPRLSDLLLEIDKKQARLTGLLEYYFNFFRGMYELDQREYLSAIKFFKKAESKLIFVKDRIEKAEFFFKMSESYYYMKQTYFSMDYARQAYEIYKEHEAYNIRLLQCHSLFATNFLDLKQYEDAISHFQKAYSMAEAEKQPQLMGRTLYNIGLCKNSQSQYEDAIPYFKRAIAVFEESNILPSLPQAYFLITQIHYKLGKIDKAHEYHSKGMAYSQKAGDVIYLSEFEFLKSLYLSGPDEEAIQGFFDFLESKMLYADLEDFAIDVAKYYHERKNFQKASAYFLKVEQVRQLIQGGVSLYEIEV
notes: two heterologous residues (Gly-Ser) derived from the thrombin cleavage signal, left after removal of the N-terminal GST; RapF, Bacillus subtilis, residues 1-381; The purification is told under 'Protein Purification for Crystallization'; Monomer by SE AUC; also called wild-type RapF; source: E. coli BL21, purified (glutathione resin, thrombin cleavage, anion exchange, gel filtration); not shown: …
B2: ComA DNA binding domain (ComAC) (domain or fragment, B. subtilis, UniProt P14204 146-214, looked up)
chain: SSQKEQDVLTPRECLILQEVEKGFTNQEIADALHLSKRSIEYSLTSIFNKLNVGSRTEAVLIAKSDGVL
notes: also called His-ComAC
B3: ComA-T190A (His-ComA mutant) (natural protein, B. subtilis, UniProt P14204 1-214, looked up)
chain: MKKILVIDDHPAVMEGTKTILETDSNLSVDCLSPEPSEQFIKQHDFSSYDLILMDLNLGGEVNGMELSKQILQENPHCKIIVYTGYEVEDYFEEAIRAGLHGAISKTESKEKITQYIYHVLNGEILVDFAYFKQLMTQQKTKPAPSSQKEQDVLTPRECLILQEVEKGFTNQEIADALHLSKRSIEYSLASIFNKLNVGSRTEAVLIAKSDGVL
notes: ComA, Bacillus subtilis, full length, with one alanine substitution
B4: ComA-R157A (His-ComA mutant) (natural protein, B. subtilis, UniProt P14204 1-214, looked up)
chain: B3 chain with R157A, A190T
notes: as for B3
B5: His-ComA (wild-type full-length ComA with His tag) (natural protein, B. subtilis, UniProt P14204 1-214, looked up)
chain: B3 chain with A190T
notes: ComA response regulator, Bacillus subtilis, full length; Purification of His-ComA is in Text S1; also called ComA2
B6: ComA (wild-type full-length ComA, no tag named) (natural protein, B. subtilis, UniProt P14204 1-214, looked up)
chain: B3 chain with A190T
notes: ComA response regulator, Bacillus subtilis, full length; Native PAGE used 'either 10 µM ComA or 10 µM His-ComA as indicated'; Purification of ComA is in Text S1; also called ComAFL
B7: ComA-N194A (His-ComA mutant) (natural protein, B. subtilis, UniProt P14204 1-214, looked up)
chain: B3 chain with A190T, N194A
notes: as for B3
B8: ComA-Y187A (His-ComA mutant) (natural protein, B. subtilis, UniProt P14204 1-214, looked up)
chain: B3 chain with Y187A, A190T
notes: as for B3
B9: PhrF peptide (peptide)
peptide: QRGMI
notes: mature PhrF signalling pentapeptide of Bacillus subtilis, cut from the pro-PhrF polypeptide; Free N- and C-termini as printed (NH2-QRGMI-COOH); also called synthetic PhrF peptide; NH2-QRGMI-COOH; source: synthetic peptide (LifeTein)

Assays:
[1] = molecular target: B5; assay: SEC + other: total amino acid analysis; 40 µM RapF and 80 µM His-ComA in Buffer A on Superdex 200 HR10/30; fractions 12.0-13.5 ml, bands separated by SDS-PAGE and excised for total amino acid analysis (unpublished data); settings: both partners purified
[2] = molecular target: B1; assay: crystal structure; RapF-ComAC co-crystals, vapor diffusion at 20°C, 1∶1 mixture of 100 µM RapF and ComAC; 6% PEG 8,000, 240 mM calcium acetate, 80 mM sodium cacodylate pH 6.5, 20% glycerol; 2.30 Å; settings: both partners purified
[3] = molecular target: B1; assay: native gel or EMSA; 10 µM RapF and 10 µM ComA or His-ComA incubated in Buffer A (20 mM Tris pH 8.0, 300 mM NaCl, 5 mM MgCl2, 1 mM DTT, 5% glycerol) 30 min at 4°C; 12% Tris-glycine native PAGE at 4°C, Coomassie; disappearance of the ComA band as indicator; settings: both partners purified
[4] = molecular target: the molecule itself; assay: SEC; Superdex 200 HR10/30 in Buffer A; RapF 20 µM, His-ComA 40 µM, incubated 30 min at 4°C; fractions by SDS-PAGE; no PhrF
[5] = molecular target: B1; assay: native gel or EMSA; native PAGE binding studies with a broad concentration range of RapF and a fixed quantity of ComA (unpublished data), together with the qualitative gels; Kd is an estimate; settings: both partners purified
[6] = molecular target: T1, RapF-E71A; assay: native gel or EMSA; 10 µM RapF and 10 µM ComA or His-ComA incubated in Buffer A (20 mM Tris pH 8.0, 300 mM NaCl, 5 mM MgCl2, 1 mM DTT, 5% glycerol) 30 min at 4°C; 12% Tris-glycine native PAGE at 4°C, Coomassie; disappearance of the ComA band as indicator; settings: both partners purified
[7] = molecular target: T2, RapF-P27A; assay: as above; settings: both partners purified
[8] = molecular target: B1; assay: SEC; Superdex 200 HR10/30 in Buffer A; RapF 20 µM, His-ComA 40 µM, with PhrF 200 µM, incubated 30 min at 4°C; fractions by SDS-PAGE; settings: both partners purified

Binder: B1
stoichiometry N [1]: 1

Binder: B2
binding result [2]: binds

Binder: B3
binding result [3]: binds

Binder: B4
binding result [3]: binds

Binder: B5
stoichiometry N [4]: 2

Binder: B6
Kd [5]: 1 to 10 µM
binding result [6]: binds
binding result [7]: binds

Binder: B7
binding result [3]: binds

Binder: B8
binding result [3]: binds

Binder: B9
binding result [8]: binds
